In patent publication US20120164137A1 (MORPHOTEK, published 2012):

B1: MORAb-003 anti-FRA antibody, lot NB859-25 (harvested 14 days after initiation of culture) (antibody, human IgG1, kappa, V domains shown)
VH: EVQLVESGGGVVQPGRSLRLSCSASGFTFSGYGLSWVRQAPGKGLEWVAMISSGGSYTYYADSVKGRFAISRDNAKNTLFLQMDSLRPEDTGVYFCARHGDDPAWFAYWGQGTPVTVSS
VL: DIQLTQSPSSLSASVGDRVTITCSVSSSISSNNLHWYQQKPGKAPKPWIYGTSNLASGVPSRFSGSGSGTDYTFTISSLQPEDIATYYCQQWSSYPYMYTFGQGTKVEIKR
modifications: N-linked neutral glycans at Asn299 in SEQ ID NO: 5
notes: also called Day 14 harvest; positive control (round 3)
B2: MORAb-003 anti-FRA antibody, lot NB859-26 (harvested 17 days after initiation of culture) (antibody, human IgG1, kappa, V domains shown)
VH: EVQLVESGGGVVQPGRSLRLSCSASGFTFSGYGLSWVRQAPGKGLEWVAMISSGGSYTYYADSVKGRFAISRDNAKNTLFLQMDSLRPEDTGVYFCARHGDDPAWFAYWGQGTPVTVSS
VL: DIQLTQSPSSLSASVGDRVTITCSVSSSISSNNLHWYQQKPGKAPKPWIYGTSNLASGVPSRFSGSGSGTDYTFTISSLQPEDIATYYCQQWSSYPYMYTFGQGTKVEIKR
modifications: N-linked neutral glycans at Asn299 in SEQ ID NO: 5
notes: also called Day 17 harvest
B3: MORAb-003 anti-FRA antibody, lot NB859-27 (harvested 20 days after initiation of culture) (antibody, human IgG1, kappa, V domains shown)
VH: EVQLVESGGGVVQPGRSLRLSCSASGFTFSGYGLSWVRQAPGKGLEWVAMISSGGSYTYYADSVKGRFAISRDNAKNTLFLQMDSLRPEDTGVYFCARHGDDPAWFAYWGQGTPVTVSS
VL: DIQLTQSPSSLSASVGDRVTITCSVSSSISSNNLHWYQQKPGKAPKPWIYGTSNLASGVPSRFSGSGSGTDYTFTISSLQPEDIATYYCQQWSSYPYMYTFGQGTKVEIKR
modifications: N-linked neutral glycans at Asn299 in SEQ ID NO: 5
notes: also called Day 20 harvest

Experiments:
[1] = target: T1, Human FRA on IGROV-1 human ovarian adenocarcinoma cells (human, UniProt P15328 25-234); assay: cell-based or functional assay
[2] = target: T1, Human FRA on IGROV-1 human ovarian …; assay: cell-based or functional assay; remark: listed apart in the source
[3] = target: T1, Human FRA on IGROV-1 human ovarian …; assay: cell-based or functional assay; remark: listed apart in the source
[4] = target: T2, Recombinant human folate receptor alpha (FRA) (human, UniProt P15328 25-234); assay: SPR, FRA on CM5 chip, parallel line analysis; reference standard = 100%
T2 construct: Immobilised on a CM5 chip by amine coupling; also called FR-alpha
T2 sequence (P15328 25-234 limits assumed): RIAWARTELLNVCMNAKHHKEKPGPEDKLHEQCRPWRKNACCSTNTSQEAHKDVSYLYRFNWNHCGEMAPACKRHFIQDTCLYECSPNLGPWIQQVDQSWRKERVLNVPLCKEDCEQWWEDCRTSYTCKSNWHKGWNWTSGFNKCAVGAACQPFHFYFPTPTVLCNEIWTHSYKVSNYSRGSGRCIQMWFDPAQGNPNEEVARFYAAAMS
Procedure: The surface was regenerated between cycles by flushing with 10 mM glycine pH 2.0.

T1 sequence (P15328 25-234 limits assumed): as above

Binder	IC50 (Hum-ZAP secondary immunotoxin killing of IGROV-1 cells) [1]	INTL % (0 Min) [2]	INTL % (15 min) [2]	INTL % (30 min) [2]	INTL % (60 min) [2]	INTL % (150 min) [2]	Half-Maximal Internalization Constant [3]	Internalization IC50 [3]	Measured Potency (%) [4]
B1	32 ng·mL	0%	1%	20%	44%	61%	42 min	0.032 µg/mL	51.9%
B2	36 ng·mL	0%	–	23%	43%	56%	36.6 min	0.036 µg/mL	27.5%
B3	23 ng·mL	0%	1%	19%	40%	51%	37.3 min	0.023 µg/mL	53.3%
